Data taken from patent US20250369024A1, “Acyloin Condensation Reactions, Enzymes, and Products Thereof” (Mojia Biotech Pte. Ltd., priority 2023, published 2025).

Key:
[1] = system: AC440; assay: Tolerance of 2HIB in AC440; assay type: cell-based, E. coli; conditions: M9-LB; cell density at 600 nm
Procedure: To check the tolerance of 2HIB, AC440 was grown in 5 mL of M9-LB supplemented with different concentration of 2HIB in 50 mL falcon tube, the cell density was monitored at 600 nm. The impact on growth could be observed at 25 g/L of 2HIB, while the AC440 is still able to grow and maintain its metabolic activity at the concentration of 2HIB at 75 g/L (FIG. 21), considering the cells will not suffer such high concentration of 2HIB at early stage, indicating AC440 is a good host for 2HIB production.

[2] = system: formate; assay: Screening of formate activation enzymes with acetone and formate using growing cultures (2HIB); assay type: cell-based, E. coli; conditions: 100 mM acetone and 20 mM formate; growing cells
Excerpt: Since formate activation is a required step for formate utilization, we further evaluated enzymes catalyzing this reaction. Acyl-CoA synthetase (ACS) enzymes are one of the three explored routes for formate activation, which can directly generate formyl-CoA from formate with the consumption of 2 ATP equivalents (ATP is converted to AMP). […] Therefore, ACS variants were further evaluated using the new established growing cell platform with ApbHACS overexpression. In this platform, formyl-CoA generated through formate activation enzymes is further condensed with non-toxic substrate acetone to produce 2-hydroxyisobutyrate (2HIB) (FIG. 23C).
The screening of a larger group of formate activation enzymes in actively growing cells was conducted using the M9-LB medium contains 6.78 g/L Na2HPO4, 3 g/L KH2PO4, 1 g/L NH4Cl, 0.5 g/L NaCl, 2 mM MgSO4, 100 μM CaCl2), 15 μM thiamine-HCl, 10 g/L tryptone, and 5 g/L yeast extract additionally supplemented with the micronutrient solution of Neidhardt^68. […] The cells were pelleted by centrifugation and the supernatant analyzed by HPLC as described below. The expected product 2-hydroxyisobutyric acid was detected in the media indicating the performance of corresponding formate activation enzymes. […]

[3] = system: 2-hydroxyisobutyryl-CoA; assay: In vitro purified enzyme isobutene glycol production from acetone and formate, ACR comparison; assay type: biochemical; conditions: 1 μM ACR and 1 μM FucO; 50 mM formate and 200 mM acetone
Procedure: The enzymes acyl-CoA transferase CaAbfT, HACS ApbHACS, acyl-CoA reductase ACR (LmACR, BmACDH, PtACDH, RpPduP, StEutE), and NADH-dependent alcohol dehydrogenase FucO were overexpressed and purified as described above. In vitro purified enzyme reactions for condensation of acetone and formyl-CoA was comprised of 100 mM KPi pH 7.4, 10 mM MgCl2, 0.15 mM TPP, 4 mM NADH, 2 mM acetyl-CoA, 1 μM ApbHACL, 2 μM CaAbfT, 50 mM formate and 200 mM acetone. The mixture was incubated at 30° C. for 3 min, and then 1 μM ACR and 1 μM FucO was added, and then the reactions were incubated at 30° C. for another 5 min unless otherwise specified. 2 μL of 10 M NaOH was added to 45 μL mixture for 30 min, followed by 3 μL 10 N H2SO4, and then applied for HPLC analysis as described above.

[4] = system: glyoxylate; assay: Growth-coupled selection of alanine dehydrogenases in glycine auxotroph strain; assay type: cell-based, E. coli; conditions: glycolate instead of glycine supplementation

With `CC(C)(O)C(=O)O` [2HIB, 2-hydroxyisobutyric acid] the “2HIB concentration at which AC440 is still able to grow and maintain metabolic activity” value [1] was 75 g/L and the “2HIB concentration at which impact on growth could be observed” value [1] was 25 g/L.

B1: OfFrc: acyl-CoA transferase (ACT), Oxalobacter formigenes, Uniprot O06644 (protein, UniProt O06644 2-428, looked up)
Formyl-CoA:oxalate …: TKPLDGINVLDFTHVQAGPACTQMMGFLGANVIKIERRGSGDMTRGWLQDKPNVDSLYFTMFNCNKRSIELDMKTPEGKELLEQMIKKADVMVENFGPGALDRMGFTWEYIQELNPRVILASVKGYAEGHANEHLKVYENVAQCSGGAAATTGFWDGPPTVSGAALGDSNSGMHLMIGILAALEMRHKTGRGQKVAVAMQDAVLNLVRIKLRDQQRLERTGILAEYPQAQPNFAFDRDGNPLSFDNITSVPRGGNAGGGGQPGWMLKCKGWETDADSYVYFTIAANMWPQICDMIDKPEWKDDPAYNTFEGRVDKLMDIFSFIETKFADKDKFEVTEWAAQYGIPCGPVMSMKELAHDPSLQKVGTVVEVVDEIRGNHLTVGAPFKFSGFQPEITRAPLLGEHTDEVLKELGLDDAKIKELHAKQVV
For B1, the “performance on formate activation (2HIB)” value [2] was “better performance”.

B2: StEutE: acyl-CoA reductase, Salmonella typhymurium, Uniprot P41793 (protein, UniProt P41793 1-467, looked up)
Acetaldehyde dehydrogenase …: MNQQDIEQVVKAVLLKMKDSSQPASTVHEMGVFASLDDAVAAAKRAQQGLKSVAMRQLAIHAIREAGEKHARELAELAVSETGMGRVDDKFAKNVAQARGTPGVECLSPQVLTGDNGLTLIENAPWGVVASVTPSTNPAATVINNAISLIAAGNSVVFAPHPAAKKVSQRAITLLNQAVVAAGGPENLLVTVANPDIETAQRLFKYPGIGLLVVTGGEAVVDAARKHTNKRLIAAGAGNPPVVVDETADLPRAAQSIVKGASFDNNIICADEKVLIVVDSVADELMRLMEGQHAVKLTAAQAEQLQPVLLKNIDERGKGTVSRDWVGRDAGKIAAAIGLNVPDQTRLLFVETPANHPFAVTEMMMPVLPVVRVANVEEAIALAVQLEGGCHHTAAMHSRNIDNMNQMANAIDTSIFVKNGPCIAGLGLGGEGWTTMTITTPTGEGVTSARTFVRLRRCVLVDAFRIV
For B2, the “performance in isobutene glycol production” value [3] was “best performance”.

B3: BsAld: alanine dehydrogenase from Bacillus subtilis, Uniprot Q08352 (protein, UniProt Q08352 1-378, looked up)
Alanine dehydrogenase: MIIGVPKEIKNNENRVALTPGGVSQLISNGHRVLVETGAGLGSGFENEAYESAGAEIIADPKQVWDAEMVMKVKEPLPEEYVYFRKGLVLFTYLHLAAEPELAQALKDKGVTAIAYETVSEGRTLPLLTPMSEVAGRMAAQIGAQFLEKPKGGKGILLAGVPGVSRGKVTIIGGGVVGTNAAKMAVGLGADVTIIDLNADRLRQLDDIFGHQIKTLISNPVNIADAVAEADLLICAVLIPGAKAPTLVTEEMVKQMKPGSVIVDVAIDQGGIVETVDHITTHDQPTYEKHGVVHYAVANMPGAVPRTSTIALTNVTVPYALQIANKGAVKALADNTALRAGLNTANGHVTYEAVARDLGYEYVPAEKALQDESSVAGA
B3 was tested, and the “growth of glycine auxotroph strain with glycolate” value [4] was “started to grow”.
